US20240192215A1

Legend:
Full-length mouse IgG [1] = assay: microarray control spot; secondary antibody after B264 0.2 ug/mL
Human_IgG [2] = assay: as above
Full-length mouse IgG [3] = assay: microarray control spot; secondary antibody after B264 5 ug/mL
Human_IgG [4] = assay: as above
Full-length mouse IgG [5] = assay: microarray control spot; secondary antibody after B266-1 0.2 ug/mL
Human_IgG [6] = assay: as above
Full-length mouse IgG [7] = assay: microarray control spot; secondary antibody after B264, head 0.08 ug (text 0.008 ug/mL)
Human_IgG [8] = assay: as above
Full-length mouse IgG [9] = assay: microarray control spot; secondary antibody after B266-1 5 ug/mL
Human_IgG [10] = assay: as above
Full-length mouse IgG [11] = assay: microarray control spot; secondary antibody only
Human_IgG [12] = assay: microarray control spot; secondary antibody only
Full-length mouse IgG [13] = assay: microarray control spot; secondary antibody after B266-1, head 0.08 ug (text 0.008 ug/mL)
Human_IgG [14] = assay: as above
Full-length mouse IgG [15] = assay: microarray control spot; secondary antibody after B264 1 ug/mL
Human_IgG [16] = assay: as above
Full-length mouse IgG [17] = assay: microarray control spot; secondary antibody after B266-1 0.04 ug/mL
Human_IgG [18] = assay: as above
Peptide_044 (human) = target: T1, Peptide_044 (human); assay: peptide microarray, secondary antibody only
T1 sequence (peptide): FSATWCGPCKMIKPF

Peptide_096 (human) = target: T2, Peptide_096 (human); assay: peptide microarray, secondary antibody only
T2 sequence (peptide): FFKKGQKVGEFSGAN

Peptide_097 (human) = target: T3, Peptide_097 (human); assay: peptide microarray, secondary antibody only
T3 sequence (peptide): FKKGQKVGEFSGANK

Peptide_092 (human) = target: T4, Peptide_092 (human); assay: peptide microarray, secondary antibody only
T4 sequence (peptide): PTFQFFKKGQKVGEF

Peptide_051 (human) = target: T5, Peptide_051 (human); assay: peptide microarray, secondary antibody only
T5 sequence (peptide): PCKMIKPFFHSLSEK

Full-length mouse IgG [19] = assay: microarray control spot; secondary antibody after B264 0.04 ug/mL
Human_IgG [20] = assay: as above
Full-length mouse IgG [21] = assay: microarray control spot; secondary antibody after B264 0.0016 ug/mL
Human_IgG [22] = assay: as above
Full-length mouse IgG [23] = assay: microarray control spot; secondary antibody after B266-1 1 ug/mL
Human_IgG [24] = assay: as above
Full-length mouse IgG [25] = assay: microarray control spot; secondary antibody after B266-1 0.0016 ug/mL
Human_IgG [26] = assay: as above

signal (blank-control = 1) (Full-length mouse IgG [1]): 46
signal (blank-control = 1) (Human_IgG [2]): 36.3
signal (blank-control = 1) (Full-length mouse IgG [3]): 7.16
signal (blank-control = 1) (Human_IgG [4]): 6.7
signal (blank-control = 1) (Full-length mouse IgG [5]): 71.4
signal (blank-control = 1) (Human_IgG [6]): 49.6
signal (blank-control = 1) (Full-length mouse IgG [7]): 76.3
signal (blank-control = 1) (Human_IgG [8]): 52.6
signal (blank-control = 1) (Full-length mouse IgG [9]): 47
signal (blank-control = 1) (Human_IgG [10]): 35.8
signal (blank-control = 1) (Full-length mouse IgG [11]): 54.6
signal (blank-control = 1) (Human_IgG [12]): 46.6
signal (blank-control = 1) (Full-length mouse IgG [13]): 74.6
signal (blank-control = 1) (Human_IgG [14]): 47.9
signal (blank-control = 1) (Full-length mouse IgG [15]): 24.5
signal (blank-control = 1) (Human_IgG [16]): 20.8
signal (blank-control = 1) (Full-length mouse IgG [17]): 79.7
signal (blank-control = 1) (Human_IgG [18]): 49.7
signal (blank-control = 1) (Peptide_044 (human)): 1.73
signal (blank-control = 1) (Peptide_096 (human)): 1.18
signal (blank-control = 1) (Peptide_097 (human)): 1.34
signal (blank-control = 1) (Peptide_092 (human)): 2.28
signal (blank-control = 1) (Peptide_051 (human)): 0.47
signal (blank-control = 1) (Full-length mouse IgG [19]): 69.5
signal (blank-control = 1) (Human_IgG [20]): 48.1
signal (blank-control = 1) (Full-length mouse IgG [21]): 74.5
signal (blank-control = 1) (Human_IgG [22]): 45.7
signal (blank-control = 1) (Full-length mouse IgG [23]): 65.4
signal (blank-control = 1) (Human_IgG [24]): 52.8
signal (blank-control = 1) (Full-length mouse IgG [25]): 84.8
signal (blank-control = 1) (Human_IgG [26]): 35.4
Substance: fluorescence-labeled secondary anti-mouse-IgG antibody (anti-mouse IgG(H+L) (Thermo 84545))
